Data reported in publication PMC9482650, “Quantitative fragmentomics allow affinity mapping of interactomes” (Nature Communications, 2022).

molecular target: GIPC2, Q8TF65; assay: holdup assay; design: key: below the threshold = too weak to quantify, mostly under pKd 3.1 to 4; conditions: plain residues with an end cap or a label only (N-terminal biotin on a linker: ado-ado)
Sequence (Q8TF65 112-203): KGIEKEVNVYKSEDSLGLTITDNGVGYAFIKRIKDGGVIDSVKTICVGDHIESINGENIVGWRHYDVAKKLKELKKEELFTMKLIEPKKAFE

Binder | pKd
EKCGKEFSEF [PRKACA, P17612] | below the threshold

molecular target: DLG4_2, P78352; assay: holdup assay; design: key: below the threshold = too weak to quantify, mostly under pKd 3.1 to 4; conditions: plain residues with an end cap or a label only (N-terminal biotin on a linker: ado-ado)
Sequence (P78352 155-259): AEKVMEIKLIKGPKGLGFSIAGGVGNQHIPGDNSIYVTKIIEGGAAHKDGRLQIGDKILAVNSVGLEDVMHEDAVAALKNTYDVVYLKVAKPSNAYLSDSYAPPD

Binder | pKd
EKCGKEFSEF [PRKACA, P17612] | below the threshold

molecular target: T1, RADIL, Q96JH8; assay: holdup assay; design: key: below the threshold = too weak to quantify, mostly under pKd 3.1 to 4; conditions: plain residues with an end cap or a label only (N-terminal biotin on a linker: ado-ado)
T1 sequence (Q96JH8 971-1071, limits assumed, looked up): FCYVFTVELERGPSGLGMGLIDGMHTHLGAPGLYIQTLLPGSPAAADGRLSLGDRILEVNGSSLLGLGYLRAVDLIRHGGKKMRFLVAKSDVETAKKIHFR

Binder | pKd
EKCGKEFSEF [PRKACA, P17612] | below the threshold

molecular target: Inadl_6, Q8NI35; assay: holdup assay; design: key: below the threshold = too weak to quantify, mostly under pKd 3.1 to 4; conditions: plain residues with an end cap or a label only (N-terminal biotin on a linker: ado-ado)
Sequence (Q8NI35 1058-1167): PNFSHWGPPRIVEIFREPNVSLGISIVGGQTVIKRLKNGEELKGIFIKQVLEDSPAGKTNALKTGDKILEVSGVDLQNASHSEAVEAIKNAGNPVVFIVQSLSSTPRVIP

Binder | pKd
EKCGKEFSEF [PRKACA, P17612] | below the threshold

molecular target: MAST1, Q9Y2H9; assay: holdup assay; design: key: below the threshold = too weak to quantify, mostly under pKd 3.1 to 4; conditions: plain residues with an end cap or a label only (N-terminal biotin on a linker: ado-ado)
Sequence (Q9Y2H9 962-1065): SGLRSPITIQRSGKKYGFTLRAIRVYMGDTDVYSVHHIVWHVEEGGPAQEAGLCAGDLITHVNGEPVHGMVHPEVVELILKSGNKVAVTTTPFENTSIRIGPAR

Binder | pKd
EKCGKEFSEF [PRKACA, P17612] | 4.21

molecular target: HTRA1, Q92743; assay: holdup assay; design: key: below the threshold = too weak to quantify, mostly under pKd 3.1 to 4; conditions: plain residues with an end cap or a label only (N-terminal biotin on a linker: ado-ado)
Sequence (Q92743 360-477): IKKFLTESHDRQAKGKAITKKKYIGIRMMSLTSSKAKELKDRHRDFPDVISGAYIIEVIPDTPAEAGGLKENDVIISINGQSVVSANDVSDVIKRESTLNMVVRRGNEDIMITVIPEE

Binder | pKd
EKCGKEFSEF [PRKACA, P17612] | below the threshold

molecular target: IL16_4, Q14005; assay: holdup assay; design: key: below the threshold = too weak to quantify, mostly under pKd 3.1 to 4; conditions: plain residues with an end cap or a label only (N-terminal biotin on a linker: ado-ado)
Sequence (Q14005 1229-1329): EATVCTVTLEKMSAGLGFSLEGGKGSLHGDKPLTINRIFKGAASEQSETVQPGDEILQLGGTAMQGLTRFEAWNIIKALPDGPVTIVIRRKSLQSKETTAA

Binder | pKd
EKCGKEFSEF [PRKACA, P17612] | below the threshold

molecular target: GORASP2, Q9H8Y8; assay: holdup assay; design: key: below the threshold = too weak to quantify, mostly under pKd 3.1 to 4; conditions: plain residues with an end cap or a label only (N-terminal biotin on a linker: ado-ado)

Binder | pKd
EKCGKEFSEF [PRKACA, P17612] | below the threshold

molecular target: LNX1_2, Q8TBB1; assay: holdup assay; design: key: below the threshold = too weak to quantify, mostly under pKd 3.1 to 4; conditions: plain residues with an end cap or a label only (N-terminal biotin on a linker: ado-ado)
Sequence (Q8TBB1 371-470): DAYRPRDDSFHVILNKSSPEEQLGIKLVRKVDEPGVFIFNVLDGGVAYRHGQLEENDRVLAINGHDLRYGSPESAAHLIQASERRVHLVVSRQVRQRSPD

Binder | pKd
EKCGKEFSEF [PRKACA, P17612] | below the threshold

molecular target: MAGI2_4, Q86UL8; assay: holdup assay; design: key: below the threshold = too weak to quantify, mostly under pKd 3.1 to 4; conditions: plain residues with an end cap or a label only (N-terminal biotin on a linker: ado-ado)
Sequence (Q86UL8 772-865): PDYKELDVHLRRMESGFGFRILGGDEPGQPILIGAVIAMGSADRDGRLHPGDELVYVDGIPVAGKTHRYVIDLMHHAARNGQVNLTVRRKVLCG

Binder | pKd
EKCGKEFSEF [PRKACA, P17612] | 3.62

molecular target: FRMPD4, Q14CM0; assay: holdup assay; design: key: below the threshold = too weak to quantify, mostly under pKd 3.1 to 4; conditions: plain residues with an end cap or a label only (N-terminal biotin on a linker: ado-ado)
Sequence (Q14CM0 67-160): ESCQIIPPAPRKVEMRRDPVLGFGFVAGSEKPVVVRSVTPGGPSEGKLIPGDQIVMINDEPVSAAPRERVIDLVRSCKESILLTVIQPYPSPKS

Binder | pKd
EKCGKEFSEF [PRKACA, P17612] | below the threshold

molecular target: T2, SNTB1, Q13884; assay: holdup assay; design: key: below the threshold = too weak to quantify, mostly under pKd 3.1 to 4; conditions: plain residues with an end cap or a label only (N-terminal biotin on a linker: ado-ado)
T2 sequence (Q13884 107-205, limits assumed, looked up): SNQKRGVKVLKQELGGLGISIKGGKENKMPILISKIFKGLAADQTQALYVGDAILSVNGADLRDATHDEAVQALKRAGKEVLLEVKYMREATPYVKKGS

Binder | pKd
EKCGKEFSEF [PRKACA, P17612] | below the threshold

molecular target: Inadl_10, Q8NI35; assay: holdup assay; design: key: below the threshold = too weak to quantify, mostly under pKd 3.1 to 4; conditions: plain residues with an end cap or a label only (N-terminal biotin on a linker: ado-ado)
Sequence (Q8NI35 1673-1763): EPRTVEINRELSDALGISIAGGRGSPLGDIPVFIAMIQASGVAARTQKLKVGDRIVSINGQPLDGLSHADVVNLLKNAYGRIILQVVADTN

Binder | pKd
EKCGKEFSEF [PRKACA, P17612] | below the threshold

molecular target: GRASP, Q7Z6J2; assay: holdup assay; design: key: below the threshold = too weak to quantify, mostly under pKd 3.1 to 4; conditions: plain residues with an end cap or a label only (N-terminal biotin on a linker: ado-ado)
Sequence (Q7Z6J2 96-193): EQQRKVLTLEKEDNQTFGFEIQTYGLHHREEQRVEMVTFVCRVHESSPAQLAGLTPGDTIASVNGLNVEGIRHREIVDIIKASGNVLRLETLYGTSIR

Binder | pKd
EKCGKEFSEF [PRKACA, P17612] | 4.16

molecular target: GRIP2_5, Q9C0E4; assay: holdup assay; design: key: below the threshold = too weak to quantify, mostly under pKd 3.1 to 4; conditions: plain residues with an end cap or a label only (N-terminal biotin on a linker: ado-ado)
Sequence (Q9C0E4 544-642): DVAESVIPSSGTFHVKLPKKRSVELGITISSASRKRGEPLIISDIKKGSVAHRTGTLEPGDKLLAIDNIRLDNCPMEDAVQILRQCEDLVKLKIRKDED

Binder | pKd
EKCGKEFSEF [PRKACA, P17612] | below the threshold

molecular target: LAP2, Q96RT1; assay: holdup assay; design: key: below the threshold = too weak to quantify, mostly under pKd 3.1 to 4; conditions: plain residues with an end cap or a label only (N-terminal biotin on a linker: ado-ado)
Sequence (Q96RT1 other isoform, or with tags, fused parts or gaps): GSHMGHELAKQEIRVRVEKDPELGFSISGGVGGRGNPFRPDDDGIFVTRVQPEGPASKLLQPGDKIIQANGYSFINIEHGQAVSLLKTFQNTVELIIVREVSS

Binder | pKd
EKCGKEFSEF [PRKACA, P17612] | below the threshold

molecular target: T3, PDZD2_2, O15018; assay: holdup assay; design: key: below the threshold = too weak to quantify, mostly under pKd 3.1 to 4; conditions: plain residues with an end cap or a label only (N-terminal biotin on a linker: ado-ado)
T3 sequence (O15018 329-429, limits assumed, looked up): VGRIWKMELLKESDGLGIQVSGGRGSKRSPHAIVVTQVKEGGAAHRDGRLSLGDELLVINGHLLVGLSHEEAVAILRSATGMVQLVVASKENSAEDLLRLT

Binder | pKd
EKCGKEFSEF [PRKACA, P17612] | 3.68

molecular target: MAGI3_2, Q5TCQ9; assay: holdup assay; design: key: below the threshold = too weak to quantify, mostly under pKd 3.1 to 4; conditions: plain residues with an end cap or a label only (N-terminal biotin on a linker: ado-ado)
Sequence (Q5TCQ9 398-503): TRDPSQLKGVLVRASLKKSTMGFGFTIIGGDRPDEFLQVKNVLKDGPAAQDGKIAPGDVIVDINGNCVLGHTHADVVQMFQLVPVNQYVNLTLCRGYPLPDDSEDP

Binder | pKd
EKCGKEFSEF [PRKACA, P17612] | below the threshold

molecular target: IL16_1, Q14005; assay: holdup assay; design: key: below the threshold = too weak to quantify, mostly under pKd 3.1 to 4; conditions: plain residues with an end cap or a label only (N-terminal biotin on a linker: ado-ado)
Sequence (Q14005 210-306): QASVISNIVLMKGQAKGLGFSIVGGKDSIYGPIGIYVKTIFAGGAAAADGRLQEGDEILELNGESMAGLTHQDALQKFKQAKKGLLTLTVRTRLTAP

Binder | pKd
EKCGKEFSEF [PRKACA, P17612] | below the threshold

molecular target: Inadl_1, Q8NI35; assay: holdup assay; design: key: below the threshold = too weak to quantify, mostly under pKd 3.1 to 4; conditions: plain residues with an end cap or a label only (N-terminal biotin on a linker: ado-ado)
Sequence (Q8NI35 113-229): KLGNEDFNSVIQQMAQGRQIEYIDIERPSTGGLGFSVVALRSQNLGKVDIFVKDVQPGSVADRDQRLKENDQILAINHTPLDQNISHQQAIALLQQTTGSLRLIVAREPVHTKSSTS

Binder | pKd
EKCGKEFSEF [PRKACA, P17612] | below the threshold

molecular target: MAGI2_5, Q86UL8; assay: holdup assay; design: key: below the threshold = too weak to quantify, mostly under pKd 3.1 to 4; conditions: plain residues with an end cap or a label only (N-terminal biotin on a linker: ado-ado)
Sequence (Q86UL8 915-1017): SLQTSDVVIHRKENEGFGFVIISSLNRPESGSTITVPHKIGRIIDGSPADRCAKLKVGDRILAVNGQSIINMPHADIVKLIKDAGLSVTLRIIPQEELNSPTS

Binder | pKd
EKCGKEFSEF [PRKACA, P17612] | 3.8

molecular target: LNX1_3, Q8TBB1; assay: holdup assay; design: key: below the threshold = too weak to quantify, mostly under pKd 3.1 to 4; conditions: plain residues with an end cap or a label only (N-terminal biotin on a linker: ado-ado)
Sequence (Q8TBB1 500-596): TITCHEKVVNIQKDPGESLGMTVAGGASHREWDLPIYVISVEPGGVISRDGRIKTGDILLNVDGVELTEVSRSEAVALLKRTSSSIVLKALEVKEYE

Binder | pKd
EKCGKEFSEF [PRKACA, P17612] | below the threshold

molecular target: DLG1_2, Q12959; assay: holdup assay; design: key: below the threshold = too weak to quantify, mostly under pKd 3.1 to 4; conditions: plain residues with an end cap or a label only (N-terminal biotin on a linker: ado-ado)
Sequence (Q12959 314-412): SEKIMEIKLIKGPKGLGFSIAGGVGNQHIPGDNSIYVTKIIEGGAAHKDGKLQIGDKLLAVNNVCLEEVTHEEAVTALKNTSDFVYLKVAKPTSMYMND

Binder | pKd
EKCGKEFSEF [PRKACA, P17612] | 3.52

molecular target: DLG4_3, P78352; assay: holdup assay; design: key: below the threshold = too weak to quantify, mostly under pKd 3.1 to 4; conditions: plain residues with an end cap or a label only (N-terminal biotin on a linker: ado-ado)
Sequence (P78352 306-403): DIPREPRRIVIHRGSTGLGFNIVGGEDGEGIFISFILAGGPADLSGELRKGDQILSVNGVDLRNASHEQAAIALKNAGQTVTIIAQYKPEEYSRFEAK

Binder | pKd
EKCGKEFSEF [PRKACA, P17612] | below the threshold

molecular target: HTRA2, O43464; assay: holdup assay; design: key: below the threshold = too weak to quantify, mostly under pKd 3.1 to 4; conditions: plain residues with an end cap or a label only (N-terminal biotin on a linker: ado-ado)
Sequence (O43464 355-458): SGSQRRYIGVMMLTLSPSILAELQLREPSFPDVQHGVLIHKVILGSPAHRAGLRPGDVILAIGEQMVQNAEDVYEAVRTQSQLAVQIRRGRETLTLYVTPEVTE

Binder | pKd
EKCGKEFSEF [PRKACA, P17612] | below the threshold

molecular target: DLG4_1, P78352; assay: holdup assay; design: key: below the threshold = too weak to quantify, mostly under pKd 3.1 to 4; conditions: plain residues with an end cap or a label only (N-terminal biotin on a linker: ado-ado)
Sequence (P78352 62-152): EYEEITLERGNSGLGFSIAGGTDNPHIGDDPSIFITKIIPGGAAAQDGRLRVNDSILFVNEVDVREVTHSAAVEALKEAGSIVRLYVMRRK

Binder | pKd
EKCGKEFSEF [PRKACA, P17612] | below the threshold

molecular target: T4, SHANK1, Q9Y566; assay: holdup assay; design: key: below the threshold = too weak to quantify, mostly under pKd 3.1 to 4; conditions: plain residues with an end cap or a label only (N-terminal biotin on a linker: ado-ado)
T4 sequence (Q9Y566 658-767, limits assumed, looked up): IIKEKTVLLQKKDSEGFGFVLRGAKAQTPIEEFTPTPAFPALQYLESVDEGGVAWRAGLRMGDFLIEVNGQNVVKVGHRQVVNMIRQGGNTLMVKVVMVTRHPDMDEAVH

Binder | pKd
EKCGKEFSEF [PRKACA, P17612] | below the threshold

molecular target: MAST2, Q6P0Q8; assay: holdup assay; design: key: below the threshold = too weak to quantify, mostly under pKd 3.1 to 4; conditions: plain residues with an end cap or a label only (N-terminal biotin on a linker: ado-ado)
Sequence (Q6P0Q8 1099-1202): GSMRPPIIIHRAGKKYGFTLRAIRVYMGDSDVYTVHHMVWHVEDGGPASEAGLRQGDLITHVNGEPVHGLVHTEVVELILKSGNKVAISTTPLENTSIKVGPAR

Binder | pKd
EKCGKEFSEF [PRKACA, P17612] | 5.08

molecular target: GRID2IP_2, A4D2P6; assay: holdup assay; design: key: below the threshold = too weak to quantify, mostly under pKd 3.1 to 4; conditions: plain residues with an end cap or a label only (N-terminal biotin on a linker: ado-ado)
Sequence (A4D2P6 272-370): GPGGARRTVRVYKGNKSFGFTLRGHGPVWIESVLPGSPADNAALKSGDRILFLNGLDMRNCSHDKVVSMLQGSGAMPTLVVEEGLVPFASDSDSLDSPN

Binder | pKd
EKCGKEFSEF [PRKACA, P17612] | below the threshold

molecular target: PDLIM1, O00151; assay: holdup assay; design: key: below the threshold = too weak to quantify, mostly under pKd 3.1 to 4; conditions: plain residues with an end cap or a label only (N-terminal biotin on a linker: ado-ado)
Sequence (O00151 1-87): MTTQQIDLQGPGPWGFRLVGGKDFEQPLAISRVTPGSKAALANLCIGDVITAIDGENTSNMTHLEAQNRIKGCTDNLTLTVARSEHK

Binder | pKd
EKCGKEFSEF [PRKACA, P17612] | below the threshold

molecular target: T5, ARHGAP21, Q5T5U3; assay: holdup assay; design: key: below the threshold = too weak to quantify, mostly under pKd 3.1 to 4; conditions: plain residues with an end cap or a label only (N-terminal biotin on a linker: ado-ado)
T5 sequence (Q5T5U3 45-169, limits assumed, looked up): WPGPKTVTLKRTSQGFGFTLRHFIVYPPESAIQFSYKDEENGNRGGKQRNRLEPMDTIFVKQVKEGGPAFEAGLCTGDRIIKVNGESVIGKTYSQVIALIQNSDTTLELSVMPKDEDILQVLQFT

Binder | pKd
EKCGKEFSEF [PRKACA, P17612] | below the threshold

molecular target: DLG2_3, Q15700; assay: holdup assay; design: key: below the threshold = too weak to quantify, mostly under pKd 3.1 to 4; conditions: plain residues with an end cap or a label only (N-terminal biotin on a linker: ado-ado)

Binder | pKd
EKCGKEFSEF [PRKACA, P17612] | 3.74

molecular target: T6, APBA2_2, Q99767; assay: holdup assay; design: key: below the threshold = too weak to quantify, mostly under pKd 3.1 to 4; conditions: plain residues with an end cap or a label only (N-terminal biotin on a linker: ado-ado)
T6 sequence (Q99767 654-744, limits assumed, looked up): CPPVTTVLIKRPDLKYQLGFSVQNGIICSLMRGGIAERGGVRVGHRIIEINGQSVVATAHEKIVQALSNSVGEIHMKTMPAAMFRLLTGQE

Binder | pKd
EKCGKEFSEF [PRKACA, P17612] | below the threshold
